Assay results: publication PMC5398634

Target: Erwinia amylovora AmyR (Erwinia amylovora strain CFBP1430)
Assay: crystal structure; native AmyR at 8 mg/ml, sitting-drop vapour diffusion, 0.1 M sodium cacodylate pH 6.9, 0.2 M magnesium chloride, 46% (v/v) PEG 200, 293 K; 1.95 Å, space group P 2(1)2(1)2; homodimer in the asymmetric unit

Work on “Erwinia amylovora AmyR (natural protein)” yielded a stoichiometry N of 2.
